For one substance, Kd results are on record in publication PMC5519134.

The target of the assay is FZD2-CRD-Fc, recombinant human Frizzled 2 cysteine-rich domain, Fc-tagged (human). Description: BLI.

As usually defined, the Kd is the equilibrium constant for the complex coming apart.

As to “TcdB_(1-1830), truncated TcdB lacking the CROPs region (from UniProt P18177 1-1830) (domain or fragment)”, the Kd came out at 17 nM.
